Results: patent US20090298167A1

Biological target: human IL-21 (human) (UniProt Q9HBE4)
Experiment: cell-based or functional assay

Sequence of human IL-21 (human) (Q9HBE4 25-162 limits assumed): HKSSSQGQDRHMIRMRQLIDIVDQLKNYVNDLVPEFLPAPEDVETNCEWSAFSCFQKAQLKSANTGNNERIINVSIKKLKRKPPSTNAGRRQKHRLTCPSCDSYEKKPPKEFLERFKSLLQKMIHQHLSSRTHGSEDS

Human IL-21R-BaF3 Neutralization IC50: 0.2 nM
Substance: human IL-21R-Fc (from UniProt Q9HBE5 20-232) (Fc fusion)
